This series in a line: protein stability index of a GFP-peptide fusion (GPS, HEK-293T) (PSI 1-6); higher = more stable.
Where [1] appears, read: treatment: DMSO, c terminus: a fixed tail appended.
[2] abbreviates: treatment: MLN4924 1 uM, 8 h, c terminus: a fixed tail appended.

± gives the standard deviation.
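Note: 24-mer peptide tiles fused after GFP, lentivirally expressed, FACS-sorted into six equal bins by GFP/DsRed ratio, decoded by Illumina sequencing, PSI is the read-weighted mean bin number.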

Regarding ANMEDLTEVITASEFHPHHCNLFV [PPP2R2C], the protein stability index reads like this: under setting [1], 2.49 ± 0.3; under setting [2], 2.41 ± 0.24. On to SEGTNLNAPNSLGVSALCAICGDR [HNF4A], for which the protein stability index by setting is: under setting [1], 3.88 ± 0.28; under setting [2], 4.13 ± 0.26. On to GGPGGPGSDKQQQQQHIECVVCGD [NR2F2], for which the protein stability index is, setting by setting: under setting [1], 5.02 ± 0.21; under setting [2], 5.02 ± 0.45. Sequence RMSEDKPQDYKKRLSVELTSSLFR [CTNNB1] yielded a protein stability index under setting [1] of 3.4 ± 0.1 and a protein stability index under setting [2] of 3.42 ± 0.25. For the sequence TDDRIVVPQRGRSTRVPVASVLI [SPNS1], the protein stability index by setting is: (treatment: DMSO, c terminus: native) 2.64 ± 0.13; (treatment: MLN4924 1 uM, 8 h, c terminus: native) 2.82 ± 0.42. As for GIGHKVDAVFMKDGFFYFFHGTRQ [MMP1], the protein stability index was 2.4 ± 0.94 under setting [1] and 2.13 ± 0.23 under setting [2]. For VLGGRRLRRAWFSWPRASPASGAS [SCNN1D], the protein stability index is 2.89 ± 0.35 under setting [1] and 2.86 ± 0.39 under setting [2]. On to PLSLVKRTDLKDLIIFDKQSSQRM [CEP70], for which the protein stability index reads like this: under setting [1], 2.97 ± 0.51; under setting [2], 3.18 ± 0.44. Regarding NMDPKAAEEEEEEEEEVDLACTPT [CCND1], the protein stability index is, setting by setting: under setting [1], 5.6 ± 0.27; under setting [2], 5.64 ± 0.13. Regarding LEPVKKSRLQLLGATCMFVASKMK [CCND1], the protein stability index was found to be 2.23 ± 0.16 under setting [1] and 2.12 ± 0.41 under setting [2]. Turning to MAEGDNRSTNLLAAETASLEEQLQ [ARL6IP1], the protein stability index reads like this: under setting [1], 5.37 ± 0.31; under setting [2], 5.43 ± 0.17. Take RAKCRNMEHALREKAKAFWAMRRS [TRIM35]: the protein stability index was 2.09 ± 0.36 under setting [1] and 2.3 ± 0.34 under setting [2].

Regarding QHYQQYMQQLYQVQLAQQQAALQK [ACBD3], the protein stability index was found to be 2.23 ± 0.23 under setting [1] and 2.21 ± 0.23 under setting [2]. Take DPSTGCYMYYFQYLSKTYCVDATR [KMT5A]: the protein stability index by setting is: under setting [1], 2.25 ± 0.34; under setting [2], 2.18 ± 0.61. As to LLFINHRLVESTSLRKAIETVYAA [MLH1], under setting [1], the protein stability index was determined as 2.2 ± 0.24. In turn, EPKLHTPMYFFLGNLSVLDVGCIS [OR3A1] had a protein stability index under setting [1] of 2.7 ± 0.83 and a protein stability index under setting [2] of 2.95 ± 0.71.

Take INDNAPTFQSSVLRVGIPENAPIG [PCDHGC5]: the protein stability index by setting is: under setting [1], 3.99 ± 0.066; under setting [2], 4.18 ± 0.19. GGKGHHLPSENLGKEPLDPDPSHS [TOR1AIP2]: the protein stability index turned out to be 5.456 ± 0.051 under setting [1] and 5.15 ± 0.14 under setting [2].

In the case of SEADSEAGELRKPTQEEWRQVVDI [PPEF2], the protein stability index is, setting by setting: under setting [1], 5.45 ± 0.15; under setting [2], 5.46 ± 0.34.

Regarding RPVAPRRPRDAVGQRGAQGAGRRR [SMAD6], the protein stability index under setting [1] turned out to be 5.27 ± 0.23 and the protein stability index under setting [2] worked out at 5.43 ± 0.14. For LTQIDGTLSTIEFQREALENSHTN [CHMP4C], the protein stability index is 4.34 ± 0.25 under setting [1] and 4.57 ± 0.22 under setting [2]. LQSAAGKDAAKQIAWIKDKLLHIY [PDS5B]: the protein stability index amounted to 2.59 ± 0.39 under setting [1] and 3.09 ± 0.61 under setting [2].

As for ADMLKQYFRDLPEPLMTNKLSETF [DLC1], the protein stability index under setting [1] was 2.71 ± 0.26 and the protein stability index under setting [2] turned out to be 2.86 ± 0.22.

In the case of QFANLVLHQTVERIHVGKKYGDIP [LSM1], the protein stability index turned out to be 2.13 ± 0.22 under setting [1] and 2.09 ± 0.23 under setting [2]. In the case of LASLVSQGMIQLALSGASQPGPSG [RETREG3], the protein stability index under setting [1] stood at 2.89 ± 1.2 and the protein stability index under setting [2] was found to be 1.99 ± 0.66.

On to GRAENGERSDLEEDNEREGTENGA [ZC3H15], for which the protein stability index by setting is: under setting [1], 5.57 ± 0.068; under setting [2], 5.57 ± 0.16. For NKKHIHSRSTLECAYRTHLVAGIG [SMG5], the protein stability index reads like this: under setting [1], 2.37 ± 0.29; under setting [2], 2.39 ± 0.19. For RLEPLEHRRRTICGTPNYLSPEVL [PLK2], the protein stability index reads like this: under setting [1], 3.55 ± 0.19; under setting [2], 3.67 ± 0.1. ETYLQNHFAEEERSKYDYLMILRR [TENT5C]: the protein stability index by setting is: under setting [1], 2.84 ± 0.1; under setting [2], 3.13 ± 0.23.

The values are drawn from the supplement of paper PMC10567573.
